# Molecular target: gB of HSV-1 (Human herpesvirus 1, UniProt P06436)
# Details: 293T cells
molecule,measurement,value
"NMHC-IIBrod-Ig: fusion protein of Ig and the C-terminal fragment of NMHC-IIB, soluble form of NMHC-IIB (protein, left off: a dimerising Fc or GST; small tags and cut ends) FAQSKESEKKLKSLEAEILQLQEELASSERARRHAEQERDELADEITNSASGKSALLDEKRRLEARIAQLEEELEEEQSNMELLNDRFRKTTLQVDTLNAELAAERSAAQKSDNARQQLERQNKELKAKLQELEGAVKSKFKATISALEAKIGQLEEQLEQEAKERAAANKLVRRTEKKLKEIFMQVEDERRHADQYKEQMEKANARMKQLKRQLEEAEEEATRANASRRKLQRELDDATEANEGLSREVSTLKNRLRRGGPISFSSSRSGRRQLHLEGASLELSDDDTESKTSDVNETQPPQSE",staining of cells expressing gB on their surface,stained

# — US20130115589A1, “Pharmaceutical Composition for Treatment and Prevention of Herpes Virus Infections” (THE UNIVERSITY OF TOKYO, priority 2010, published 2013)
